Assay results from patent US20060134719A1, “Novel serine protease” (priority 2002, published 2006).
*: point of attachment. AMC = Cc1cc(=O)oc2cc(N*)ccc12; Boc = CC(C)(C)OC(=O)*; OBn = c1ccc(CO*)cc1

What was measured:
Assay type in all cases: biochemical
[1] = target: T1, purified signal-FLAG-ARS-extracellular enzyme after the treatment with trypsin beads (Homo sapiens, UniProt Q7Z410, INS90FVSSFQKTELEASCVGCSVLNYRDGNSSVLVHFQ); assay: Detection of enzyme activity using physiologically active peptides (HPLC); settings: peptide 0.1 mM in 100 mM ammonium hydrogen carbonate pH 8, 37° C. for 16 hours; versus buffer control
T1 construct: FLAG (N); made in house; host or cells: HEK293-EBNA
T1 sequence (Q7Z410 with tags, fused parts or gaps): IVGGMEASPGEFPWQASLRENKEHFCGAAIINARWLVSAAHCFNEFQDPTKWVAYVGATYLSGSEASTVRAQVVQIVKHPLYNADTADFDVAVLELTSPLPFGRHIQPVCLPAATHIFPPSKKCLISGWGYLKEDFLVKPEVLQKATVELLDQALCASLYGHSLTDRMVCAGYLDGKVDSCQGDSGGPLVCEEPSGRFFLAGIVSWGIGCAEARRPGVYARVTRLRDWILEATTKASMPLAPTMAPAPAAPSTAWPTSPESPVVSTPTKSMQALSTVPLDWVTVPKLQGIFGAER
T1 sequence (Q7Z410 with tags, fused parts or gaps INS90FVSSFQKTELEASCVGCSVLNYRDGNSSVLVHFQ): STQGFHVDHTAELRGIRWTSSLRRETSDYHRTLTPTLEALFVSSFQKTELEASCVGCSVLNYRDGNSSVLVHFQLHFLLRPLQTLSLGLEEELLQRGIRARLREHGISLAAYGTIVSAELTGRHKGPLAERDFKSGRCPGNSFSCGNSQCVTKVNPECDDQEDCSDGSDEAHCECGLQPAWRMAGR
Experimental: The purified signal-FLAG-ARS-extracellular enzyme after the treatment with trypsin beads in the same manner as in the method of Example 9 was used as an enzyme sample and was mixed with the following physiologically active peptides for reaction at 37° C. for 16 hours, to detect the enzyme activity. As a control without addition of enzyme, an ammonium hydrogen carbonate buffer was used. The peptides were adjusted to 0.1 mM in 100 mM ammonium hydrogen carbonate solution of pH 8. The peptides used were adenocorticotropic hormone (ACTH), angiotensin 1-13, angiotensin 1-14, angiotensin 1-7, angiotensin 1-9, angiotensin 3-7, angiotensin 3-8, angiotensin I, angiotensin II, angiotensin III, A-type natriuretic peptide (ANP), apelin 13, apelin 36, big gastrin, B-type natriuretic peptide 32 (BNP 32), bradykinin, benzoyl-Gly-His-Leu, chymostatin, C-type natriuretic peptide 22 (CNP 22), arginine-deficient bradykinin (Des-Arg-bradykinin), leucine-terminal enkephalin (Leu-enkephalin), methionine-terminal enkephalin (Met-enkephalin), growth hormone (GH), gastric inhibitory peptide (GIP), glucagon-like peptide 1 (GLP-1), glucagon-like peptide 2 (GLP-2), glucagon, growth hormone releasing factor (GRF), insulin, luteinizing hormone releasing hormone (LH-RH), melanin-concentrating hormone (MCH), α-melanocyte stimulating hormone (α-MSH), motilin, neurotensin, neuropeptide Y (NPY), oxytosin, pituitary adenylate cyclase activating polypeptide 38 (PACAP38), prolactin-releasing peptide (PrRP31), pyroglutamic apelin 13 (Pyr-apelin 13), secretin, somatostatin, substance P, [D-Argl, D-Pro2,D-Trp7,9, Leul1]-substance P, [D-Pro2,D-Trp7,9]-substance P, urotensin II, or vasoactive intestinal peptide (VIP) (all from Peptide Institute, Inc.). The cleavage of the substrate peptides was confirmed by analyzing and comparing the reaction of a sample with the enzyme solution to with that of a sample with added ammonium hydrogen carbonate buffer instead of the enzyme, by high-performance liquid chromatography (HPLC) (LC-10AS manufactured by Shimadzu Co., Ltd.).
TSK-gel ODS-80 Ts column, manufactured by TOSOH
Column temperature: 40° C.
Measurement wavelength: 220 nm
Compositions of solvent solutions
Solution A: 10 mM potassium dihydrogen phosphate buffer, pH 7.4 to 8.0
Solution B: mixture solution of 90% acetonitrile: 10% ultra-pure water

[2] = target: T2, purified protein solution (signal-FLAG-ARS-extracellular protein) (Homo sapiens, UniProt Q7Z410, INS90FVSSFQKTELEASCVGCSVLNYRDGNSSVLVHFQ); assay: Enzyme activity of purified recombinant protein using synthetic peptides; settings: substrate 200 μM or 400 μM, ammonium hydrogen carbonate buffer, 37° C. for one hour; versus buffer control
T2 construct: made in house; host or cells: HEK293-EBNA
T2 sequence (Q7Z410 with tags, fused parts or gaps INS90FVSSFQKTELEASCVGCSVLNYRDGNSSVLVHFQ): T1 sequence (Q7Z410 with tags, fused parts or gaps INS90FVSSFQKTELEASCVGCSVLNYRDGNSSVLVHFQ)
T2 sequence (Q7Z410 with tags, fused parts or gaps): T1 sequence (Q7Z410 with tags, fused parts or gaps)
Experimental: Using a cell expressing the signal-FLAG-ARS-extracellular protein, a recombinant protein secreted into the liquid culture of the cell was extracted and purified. Specifically, the transfected HEK293EBNA cells were incubated by the same method as in Example 7 to about 80% confluence, from which the culture medium was then removed. Instead, a culture medium containing 4% serum was added, for further incubation under conditions of 37° C. and a carbon dioxide concentration of 5% for another 4 days. The culture supernatant was recovered 4 days later; filtered through a 0.22-μm filter (Zartor); and adsorbed on an ANTI-FLAG M2-AGAROSE AFFINITY GEL (Sigma) column equilibrated with TBS buffer by a routine method. Subsequently, about 50 ml of the TBS buffer was used for washing the column. Then, 6 ml of […] glycine hydrochloride solution of pH 2.2 was passed through the column to obtain each 1 ml fraction. To the separated fractions, 100 μl of 1 M Tris-HCl of pH 8 was immediately added to adjust the pH. The individual fractions thus obtained were confirmed by Western blotting using an antibody against the FLAG tag added to the N terminus (mouse anti-FLAG monoclonal antibody M2; Sigma). Specifically, the eluted fractions were electrophoresed on SDS/4% to 20% acrylamide gel (Daiichi Pure Chemicals Co., Ltd.) (under reducing conditions) and then transferred on PVDF membrane (Millipore) using a blotting apparatus. After adding Block Ace (DAINIPPON PHARMACEUTICAL CO., LTD.) for blocking to the transferred PVDF membrane, a biotinylated mouse anti-FLAG monoclonal antibody (M2; Sigma) and horseradish peroxidase-labeled streptoavidin (Amersham Pharmacia) were sequentially reacted. After reaction, it was confirmed that which eluted fractions contained the protein, using ECL Western blotting detection system (Amersham Pharmacia).
Using a synthetic peptides which have the C terminus labeled wit MCA (4-methyl-coumaryl-7-amide) by the same method as in Example 8, the cleavage activity of the enzyme purified in Example 10 was detected. Unless otherwise described, the method described in a paper (Yasuoka, S. et al., Am. J. Respir. Cell Mol Biol., Vol. 16, 300-308, 1997) was used. Specifically, using a synthetic peptides (Peptide Institute, Inc.) which have the C terminus labeled with MCA as substrates, the substrates were diluted with ammonium hydrogen carbonate buffer to become a final concentration of 200 μM or 400 μM in a 96-well plate. After the purified protein solution obtained in Example 10 or the ammonium hydrogen carbonate buffer as a control was added to the substrate solutions, the resulting mixtures were incubated at 37° C. for one hour. Subsequently, the fluorescence of AMC (7-amino-4-methyl-coumarin) released from the synthetic peptide by enzymatic cleavage was measured at a wavelength of 460 nm for measurement, using an excitation wavelength of 390 nm with a fluorescent plate reader (SAFIRE manufactured by TECAN). In FIG. 1, the open bar expresses buffer control, while the solid bar expresses the case of using purified protein solution. The first bar represents the case of using Boc-Glu(OBzl)-Ala-Arg-MCA as a substrate; the second bar represents the case of using Boc-Phe-Ser-Arg-MCA as a substrate; the third bar represents the case of using Boc-Leu-Ser-Thr-Arg-MCA as a substrate; the fourth bar represents the case of using Boc-Gln-Arg-Arg-MCA as a substrate; the fifth bar represents the case of using Suc-Ala-Ala-Pro-Phe-MCA as a substrate; the sixth bar represents the case of using Suc-Ala-Pro-Ala-MCA as a substrate; the seventh bar represents the case of using Boc-Glu-Lys-Lys-MCA as a substrate; the eighth bar represents the case of using Boc-Leu-Lys-Arg-MCA as a substrate; the ninth bar represents the case of using Boc-Leu-Gly-Arg-MCA as a substrate; and the tenth bar represents the case of using Boc-Asp(OBzl)-Pro-Arg-MCA as a substrate.

[3] = target: T3, enzyme solution treated with trypsin beads (purified signal-FLAG-ARS-extracellular protein) (Homo sapiens, UniProt Q7Z410, INS90FVSSFQKTELEASCVGCSVLNYRDGNSSVLVHFQ); assay: Substrate cleavage activity of purified protein solution treated with trypsin beads; settings: substrate 400 μM, ammonium hydrogen carbonate buffer, 37° C. for one hour
T3 construct: FLAG (N); made in house; host or cells: HEK293-EBNA
T3 sequence (Q7Z410 with tags, fused parts or gaps): T1 sequence (Q7Z410 with tags, fused parts or gaps)
T3 sequence (Q7Z410 with tags, fused parts or gaps INS90FVSSFQKTELEASCVGCSVLNYRDGNSSVLVHFQ): T1 sequence (Q7Z410 with tags, fused parts or gaps INS90FVSSFQKTELEASCVGCSVLNYRDGNSSVLVHFQ)
Experimental: By the same method as in Example 9, an enzyme solution treated with trypsin beads was obtained, using the purified protein solution. Then, the substrate cleavage activity of the enzyme solution was measured by the same method as in Example 8. Specifically, synthetic peptide substrates were diluted in ammonium hydrogen carbonate buffer to become a final concentration of 400 μM in a 96-well plate. After the enzyme solution described above was mixed into the resulting diluted substrates, the mixture were incubated at 37° C. for one hour. Subsequently, the fluorescence of AMC released from the synthetic peptide by enzymatic cleavage were measured.

**Q.** A-type natriuretic peptide [ANP] was tested. Which “cleavage of physiologically active peptide by enzyme sample (HPLC)” value [1] did it give?
**A.** selectively cleaved

**Q.** Which “cleavage of physiologically active peptide by enzyme sample (HPLC)” value [1] does the source give for “α-melanocyte stimulating hormone [α-MSH]” here?
**A.** selectively cleaved

**Q.** Which results are given for Boc-Leu-Gly-Arg-{AMC}?
**A.** cleavage of synthetic peptide by purified protein solution (fluorescence of released AMC) [2]: cleaved; cleavage of synthetic peptide by enzyme solution treated with trypsin beads (fluorescence of released AMC) [3]: cleaved

**Q.** With C-type natriuretic peptide 22 [CNP] as the substance, how does the “cleavage of physiologically active peptide by enzyme sample (HPLC)” value [1] read?
**A.** selectively cleaved

**Q.** Which “cleavage of physiologically active peptide by enzyme sample (HPLC)” value [1] does the source give for melanin-concentrating hormone [MCH] here?
**A.** selectively cleaved

**Q.** Which results are given for Boc-Glu-Lys-Lys-{AMC}?
**A.** cleavage of synthetic peptide by purified protein solution (fluorescence of released AMC) [2]: cleaved; cleavage of synthetic peptide by enzyme solution treated with trypsin beads (fluorescence of released AMC) [3]: cleaved

**Q.** With “Boc-Leu-Ser-Thr-Arg-MCA (Boc-LSTR-{AMC}; SMILES Cc1cc(=O)oc2cc(NC(=O)[C@H](CCCNC(=N)N)NC(=O)[C@@H](NC(=O)[C@H](CO)NC(=O)[C@H](CC(C)C)NC(=O)OC(C)(C)C)[C@@H](C)O)ccc12) [synthetic peptide substrate labeled with MCA at the C terminus]” as the substance, how does the “cleavage of synthetic peptide by purified protein solution (fluorescence of released AMC)” value [2] read?
**A.** cleaved

**Q.** And the “cleavage of synthetic peptide by enzyme solution treated with trypsin beads (fluorescence of released AMC)” value [3]?
**A.** cleaved

**Q.** vasoactive intestinal peptide [VIP] was tested. Which “cleavage of physiologically active peptide by enzyme sample (HPLC)” value [1] did it give?
**A.** selectively cleaved

**Q.** How did the “cleavage of synthetic peptide by purified protein solution (fluorescence of released AMC)” value [2] turn out when Boc-Asp(OBn)-Pro-Arg-{AMC} was run?
**A.** cleaved

**Q.** What about the “cleavage of synthetic peptide by enzyme solution treated with trypsin beads (fluorescence of released AMC)” value [3] of the same substance?
**A.** cleaved

**Q.** neuropeptide Y [NPY] was tested. Which “cleavage of physiologically active peptide by enzyme sample (HPLC)” value [1] did it give?
**A.** selectively cleaved

**Q.** With Boc-Leu-Lys-Arg-{AMC} as the substance, how does the “cleavage of synthetic peptide by purified protein solution (fluorescence of released AMC)” value [2] read?
**A.** cleaved

**Q.** And the “cleavage of synthetic peptide by enzyme solution treated with trypsin beads (fluorescence of released AMC)” value [3]?
**A.** cleaved
